One molecule from PMC9701394, “Modified exosomal SIRPα variants alleviate white matter injury after intracerebral hemorrhage via microglia/macrophages” (Biomaterials Research, 2022) can be followed below.

For this assay, the target named is T1, biotinylated CD47 (UniProt Q08722 19-141, biotin (by BirA ligase, on the Avi tag)).
T1 construct: CD47, IgSF domain; the SPR methods say only 'biotinylated CD47'. 'Purified as described above' would imply a His tag and a cleaved GST; also called CD47 IgSF domain
T1 sequence (Q08722 19-141): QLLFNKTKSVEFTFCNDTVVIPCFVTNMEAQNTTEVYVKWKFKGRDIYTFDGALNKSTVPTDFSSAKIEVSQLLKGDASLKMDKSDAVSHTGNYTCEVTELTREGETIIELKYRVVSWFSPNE
Description: SPR; biotinylated CD47 (Rmax ~150 RU) captured on Biacore SA sensor chip at 25 °C; serial dilutions of SIRPα in HBS-P buffer; regeneration with 2 mol/L MgCl2; Langmuir binding model, Biacore T200. The note with it: both partners purified. (Surface plasmon resonance follows binding to a sensor surface in real time, without labels.)

B1: wild-type SIRPα (SIRPα WT), soluble monomer (domain or fragment, human, UniProt P78324 31-148, looked up)
chain: EEELQVIQPDKSVLVAAGETATLRCTATSLIPVGPIQWFRGAGPGRELIYNQKEGHFPRVTTVSDLTKRNNMDFSIRIGNITPADAGTYYCVKFRKGSPDDVEFKSGAGTELSVRAKP
notes: signal regulatory protein α (SIRPα), human, N-terminal V-set Ig domain; also called wild-type human SIRPα; SIRPα WT monomer; source: E. coli BL-21(DE3), purified (Ni-NTA; GST removed with HRV 3C protease); not shown: GST, N-terminal, cleaved
Broadly, the Kd is the equilibrium constant for the complex coming apart. Take B1: the Kd turned out to be 365 nM and the “dissociation half-life (t1/2)” value stood at 2.4 s.
